Molecular target: the molecule itself
Assay: glycerol density-gradient centrifugation; material partially purified by Mto2-SZZ (IgG beads, TEV cleavage) from mto1[9A1-bonsai]-GFP or mto1Δ lysates, before and after 10-fold concentration; isokinetic glycerol gradient, 2.5 hr or 45 min; quantitative western blotting

B1: Mto2-S (the TEV protease cleavage product of Mto2-SZZ) (natural protein, Schizosaccharomyces pombe, UniProt Q9USP7 1-397, looked up)
chain: MSEHNYQSDREVAEDPFLNYEASANQLSSNSRESTPRGSPWRAGMRSASLMTEPLEDSMYSDNNYLDNGVSFTKDENPLYSPSWPSLADANVNSMKSNNAIQEHKAAKFVSEKSLEKVSTADNNLVLQELENLRERLNQVELQLSERPSSYLGYHNNLSPYRSPNSYPSLLPSTHSPHSPAPLSTMQTALMRLRTYHPSPIILKPVEQAVNHAITLVNTSPSSVVDALCRSLAELCLGLVQEAIDASILSQQESSNSLDLVRHTPPLNYTSSVDSSPQRMASDSYGRPSLHLNDPFPSVDLQSNELSHHNVRTTLFSDDSRFHSKIHTHSTPPSQMYSAASHFRYRSDPSTRHVSNSTNKSSLHPSPTSLRVAHPIIPQRASPASQSFPSLQDTPSP
notes: Mto2, Schizosaccharomyces pombe; source: S. pombe, partially purified (immunoglobulin G beads, TEV protease cleavage), enriched 3,400-fold
  binding result: binds

Reference: article PMC3989768, “Activation of the γ-Tubulin Complex by the Mto1/2 Complex” (Current Biology, 2014)
